The text below walks through data of US20250304666A1 (ALCHEMAB THERAPEUTICS, published 2025).

The EC50 (read off the curve) is the concentration needed to bring the measured effect to its halfway point. As usually defined, the Kd is the equilibrium constant for the complex coming apart. For orientation: koff means the rate constant with which the complex falls apart. A higher koff goes with a short-lived complex. For orientation: kon means a measure of how fast the partners come together. Lower therefore signals slower complex formation.

Assay [1] addresses T1, reduced CFH (Homo sapiens (Human), UniProt P08603 860-1231, limits assumed).
T1 construct: also called CFH (reduced)
T1 sequence: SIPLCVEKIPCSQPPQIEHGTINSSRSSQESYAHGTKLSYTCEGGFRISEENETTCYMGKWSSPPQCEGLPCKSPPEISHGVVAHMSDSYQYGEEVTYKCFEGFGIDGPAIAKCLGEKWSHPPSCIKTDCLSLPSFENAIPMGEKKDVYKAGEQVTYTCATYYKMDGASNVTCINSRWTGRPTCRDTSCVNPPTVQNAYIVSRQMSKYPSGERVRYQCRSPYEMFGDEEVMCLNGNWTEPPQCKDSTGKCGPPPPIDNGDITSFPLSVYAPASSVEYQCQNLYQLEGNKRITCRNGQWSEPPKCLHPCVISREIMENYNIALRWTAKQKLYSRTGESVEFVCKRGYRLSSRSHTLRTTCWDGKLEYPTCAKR
Nature of the assay: direct ELISA on reduced CFH. Background: ELISA stands for enzyme-linked immunosorbent assay.

In assay [2] the target is T1, reduced CFH. The experiment in a line: ELISA on reduced CFH after heating the mAb (70 C, 1 h, as Figure 16).
In a further assay the target is T2, reduced CFHR3 (UniProt Q02985 19-330, limits assumed).
T2 sequence (looked up): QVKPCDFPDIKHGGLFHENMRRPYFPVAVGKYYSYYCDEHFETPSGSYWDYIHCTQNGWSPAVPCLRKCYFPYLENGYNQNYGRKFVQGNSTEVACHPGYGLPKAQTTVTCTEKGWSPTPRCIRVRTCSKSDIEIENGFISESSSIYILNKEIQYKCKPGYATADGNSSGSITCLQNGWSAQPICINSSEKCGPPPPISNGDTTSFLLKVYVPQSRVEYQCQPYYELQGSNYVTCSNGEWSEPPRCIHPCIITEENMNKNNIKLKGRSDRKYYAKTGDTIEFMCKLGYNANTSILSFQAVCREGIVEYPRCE
Nature of the assay: ELISA on reduced CFHR3.

The target of another assay is T3, reduced CFHR5 (UniProt Q9BXR6 19-569, limits assumed).
T3 sequence (looked up): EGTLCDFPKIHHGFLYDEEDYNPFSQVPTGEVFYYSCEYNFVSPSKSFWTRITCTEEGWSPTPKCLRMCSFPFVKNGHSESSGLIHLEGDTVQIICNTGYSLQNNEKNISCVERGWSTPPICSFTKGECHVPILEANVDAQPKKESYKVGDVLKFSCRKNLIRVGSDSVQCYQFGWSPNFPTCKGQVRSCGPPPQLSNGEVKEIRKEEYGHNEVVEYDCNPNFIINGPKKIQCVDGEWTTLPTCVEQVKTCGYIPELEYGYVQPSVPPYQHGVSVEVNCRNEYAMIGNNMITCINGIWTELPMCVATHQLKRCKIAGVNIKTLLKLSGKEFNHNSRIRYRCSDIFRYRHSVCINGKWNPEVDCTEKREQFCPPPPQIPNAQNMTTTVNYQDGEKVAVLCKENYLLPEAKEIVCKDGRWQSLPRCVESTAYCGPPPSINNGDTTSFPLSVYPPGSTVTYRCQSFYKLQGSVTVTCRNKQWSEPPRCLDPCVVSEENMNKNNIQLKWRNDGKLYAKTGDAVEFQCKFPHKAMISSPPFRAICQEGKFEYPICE
The experiment in a line: ELISA on reduced CFHR5.

Assay [3] addresses T4, immobilised biotinylated full-length CFH (reduced) (Homo sapiens (Human), UniProt P08603 19-1231, biotinylated; reduced with 20 mM dithiothreitol).
T4 construct: Purified endogenous full-length CFH immobilised by biotin on streptavidin BLI sensors; also called immobilised CFH; surface immobilised CFH
Nature of the assay: BLI, biotinylated reduced full-length CFH on streptavidin tips, 1:1 global fit. The method, then:
(§1) Biolayer interferometry (BLI, Octet 96Red) was used to measure binding kinetics of the interactions between anti-CFH antibodies and CFH. The CFH used for kinetics measurements was purified endogenous CFH was biotinylated and reduced with 20 mM dithiothreitol (DTT). An irrelevant protein was treated in the same way as a negative control reference. The CFH or irrelevant control ligands were each immobilised via the conjugated biotin onto a set of streptavidin (SA) sensor tips. Sensors were dipped into reference kinetics buffer (Phosphate buffered saline (PBS), pH 7.4, 0.05% Tween-20, 2% w/v not fat milk powder) to achieve a steady baseline. Association was measured over 300 s by dipping the sensors into an analyte concentration series of anti-CFH antibody (33.3-2.08 nM in kinetics buffer) as well as a no analyte control (kinetics buffer only). Dissociation was measured over 1500 s by dipping the sensors into kinetics buffer only. Baseline, association and dissociation steps were all measured with sensors shaking at 800 rpm and at a temperature of 23° C. Data was analysed with Data Analysis HT 11.1.0.25 software. Data from reference sensors and analyte control were subtracted. Data was corrected by aligning y-axis to average of baseline 5 s before association, inter step correction aligned to start of baseline and using Savitzky-Golay filtering. Data was fit to a 1:1 model using association and dissociation phases and kinetic rate constants are reported for the global fit where each curve R2 is >0.9.
For orientation: BLI is a label-free optical method that tracks binding on a fibre tip over time.

The target in assay [4] is T4, immobilised biotinylated full-length …. Nature of the assay: BLI (Octet), biotinylated reduced CFH on streptavidin sensors, antibody 33.3-2.08 nM as analyte, 1:1 global fit; lower end of the printed KD range. The protocol:
as §1, with “Data was fit to a 1:1 model using association and dissociation phases and kinetic rate constants are reported for the global fit where each curve R2 is >0.9.” left out

Numbering of substitutions follows the chain as printed.

B1: ATL4717 (antibody, human IgG1, kappa, V domains shown)
VH: QVQLVESGGGMVQPGRSLRLSCAASGFTFSIYGMHWVRQAPGRGLEWVAVMSFDGKTKYYADSVKGRFTISRDNSKNTLYLQMNSLRRVDTAVYYCAKGGATAAVFDSWGQGTLVTVSS
VL: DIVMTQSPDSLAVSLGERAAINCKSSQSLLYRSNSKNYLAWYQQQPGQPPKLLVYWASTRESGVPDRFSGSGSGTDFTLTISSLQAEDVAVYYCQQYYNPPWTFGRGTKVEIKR
notes: Human IgG1; also called ATL0004717; ATL04717
For the molecule B1, the “EC50 (read off the curve)” value with reduced CFH [1] was about 100 pM. In addition, the “Harsh Heat challenge ELISA value” in the assay with reduced CFH [2] was determined as 0.04.

B2: ATL5170 (antibody, human IgG1, kappa, V domains shown)
VH: B1 VH with M11V, I31N, R43K, M51T, R88A, V89E, F106L
VL: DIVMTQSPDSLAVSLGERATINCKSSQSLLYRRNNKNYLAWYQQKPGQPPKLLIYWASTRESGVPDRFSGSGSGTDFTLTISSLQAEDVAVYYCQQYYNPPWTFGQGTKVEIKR
notes: IgG1; also called ATL_0005170
On to B2, for which, in the assay with reduced CFHR3, the binding result is “no binding (tested: 100 ug/ml)”. Further, the binding result in the assay with reduced CFHR5 is recorded as “no binding (tested: 100 ug/ml)”. In addition, the “Harsh Heat challenge ELISA value” with reduced CFH [2] worked out at 0.49. Moreover, in assay [3], binding was put at a Kd of 0.85 nM, the koff stood at 0.000348 s⁻¹ and the on-rate (kon) worked out at 409000 M⁻¹ s⁻¹. The same molecule gave a Kd in assay [4] of 0.402 to 1.46 nM.
